# Measurements published in publication PMC12078792.
# Experiments:
# [1] = molecular target: HIV-1 CA hexamer tubes, disulfide-stabilized CA hexamers (A14C/E45C) assembled into large molecular weight tubes; assay: co-sedimentation with CA hexamer tubes; settings: read off a plot
# [2] = molecular target: HIV-1 CA hexamer tubes, disulfide-stabilized CA hexamers (A14C/E45C) assembled into large molecular weight tubes (HIV-1)
# [3] = molecular target: HIV-1 CA hexamer tubes, disulfide-stabilized CA hexamers (A14C/E45C) assembled into large molecular weight tubes; assay: co-sedimentation with CA hexamer tubes; settings: parent: est. 81; read off a plot
substance,measurement,setting,value
TRIM-NUP153C-HA with CbM.1 replaced by CbM.2 (∆1::2) (from UniProt Q0PF16;P49790) F1417A,response (% Bound NUP153c),[1]; parent: est. 55,36
TRIM-NUP153C-HA with the mutation F1417A in CbM.1 (from UniProt Q0PF16 1-304; P49790 896-1475),TRIM-NUP153c restriction assay: increase in HIV-GFP-positive cells,[2],7 fold
"TRIM-NUP153C-HA, TRIM domain of rhesus TRIM5α (1-304) fused to the HA-tagged human NUP153 C-terminal domain (896-1475), wild type (from UniProt Q0PF16 1-304; P49790 896-1475)",TRIM-NUP153c restriction assay: HIV-GFP-transduced GFP-positive cells relative to empty vector control (% relative to empty vector control),[2],18.5
"TRIM-NUP153C-HA, TRIM domain of rhesus TRIM5α (1-304) fused to the HA-tagged human NUP153 C-terminal domain (896-1475), wild type (from UniProt Q0PF16;P49790) ∆1::2 (CbM.1 replaced by CbM.2)",response (% Bound NUP153c),[1]; parent: est. 81,55
same,response (% Bound NUP153c),[3],55
"TRIM-NUP153C-HA, TRIM domain of rhesus TRIM5α (1-304) fused to the HA-tagged human NUP153 C-terminal domain (896-1475), wild type (from UniProt Q0PF16;P49790) ∆1::3 (CbM.1 replaced by CbM.3)",response (% Bound NUP153c),[3],47
"TRIM-NUP153C-HA, TRIM domain of rhesus TRIM5α (1-304) fused to the HA-tagged human NUP153 C-terminal domain (896-1475), wild type (from UniProt Q0PF16;P49790) ∆1::4 (CbM.1 replaced by CbM.4)",response (% Bound NUP153c),[3],51
"TRIM-NUP153C-HA, TRIM domain of rhesus TRIM5α (1-304) fused to the HA-tagged human NUP153 C-terminal domain (896-1475), wild type (from UniProt Q0PF16;P49790) ∆2::1 + ∆1::2 (CbM.1 and CbM.2 swapped)",response (% Bound NUP153c),[1]; parent: est. 81,97
